In experiment [1] the target is T1, purified arginase 1 (ARG1; aa 1-322) (UniProt P05089 1-322).
T1 construct: Arginase 1 (ARG1), P05089, aa 1-322; Named MBP-ARG1 only for the SPR; also called MBP-ARG1; purified ARG1
T1 sequence (looked up): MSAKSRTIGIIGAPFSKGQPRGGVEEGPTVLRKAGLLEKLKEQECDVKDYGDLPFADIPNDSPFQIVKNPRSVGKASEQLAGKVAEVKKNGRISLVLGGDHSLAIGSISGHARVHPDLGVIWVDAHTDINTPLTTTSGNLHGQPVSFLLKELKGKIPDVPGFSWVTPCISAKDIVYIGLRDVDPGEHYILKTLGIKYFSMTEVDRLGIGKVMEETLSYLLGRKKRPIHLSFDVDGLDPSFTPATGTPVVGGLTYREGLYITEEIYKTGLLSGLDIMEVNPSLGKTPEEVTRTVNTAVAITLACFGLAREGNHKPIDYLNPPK
The experiment is described as follows: SPR; Biacore X100, CM5 chip, GST-hsNex (10 µM) captured by immobilized anti-GST antibody, MBP-ARG1 0.5-20 µM injected, 25 °C, 10 mM HEPES pH 7.4, 150 mM NaCl, 0.05% P20, Langmuir 1:1 model. The settings on record: both partners purified.

Experiment [2] has as its target T1, purified arginase 1 (ARG1; aa 1-322). The experiment is described as follows: pull-down; GST-fusion proteins immobilized on GSH agarose beads, mixed with purified ARG1, 1 h at 4 °C. Conditions: both partners purified.

B1: GST-hsNex (human ERas N-terminal extension, aa 1-38) (domain or fragment, UniProt Q7Z444 1-38, looked up)
chain: MELPTKPGTFDLGLATWSPSFQGETHRAQARRRDVGRQ
notes: Embryonic stem cell-expressed Ras (ERas), human, Q7Z444, N-terminal extension (Nex) aa 1-38; Cloned into pMal-c5X-His or pGEX-4T1-N-TEV; used as GST fusion; also called ERas hsNex; GST-Nex of human ERas
For orientation: Kd means a measure of binding affinity in units of concentration. Consider B1, for which, in experiment [1], the Kd came out at 2.1 µM.

B2: GST-hsFL (human ERas full length, aa 1-233) (natural protein, UniProt Q7Z444 1-233, looked up)
chain: MELPTKPGTFDLGLATWSPSFQGETHRAQARRRDVGRQLPEYKAVVVGASGVGKSALTIQLNHQCFVEDHDPTIQDSYWKELTLDSGDCILNVLDTAGQAIHRALRDQCLAVCDGVLGVFALDDPSSLIQLQQIWATWGPHPAQPLVLVGNKCDLVTTAGDAHAAAAALAHSWGAHFVETSAKTRQGVEEAFSLLVHEIQRVQEAMAKEPMARSCREKTRHQKATCHCGCSVA
notes: Embryonic stem cell-expressed Ras (ERas), human, Q7Z444, FL aa 1-233; also called ERas hsFL; GST-FL of human ERas
On to B2, for which the binding result in experiment [2] is given as “binds”.

B3: GST-rnNex (rat ERas N-terminal extension, aa 1-38) (domain or fragment, UniProt D3ZTE4 1-38, looked up)
chain: MALPTKSSILDLSPGTQCSRSPEESHEAWAQCKDAGRQ
notes: Embryonic stem cell-expressed Ras (ERas), rat, D3ZTE4, N-terminal extension (Nex) aa 1-38; also called ERas rnNex; GST-Nex of rat ERas
Regarding B3, in experiment [2], the binding result is recorded as “binds”.

B4: GST-rnFL (rat ERas full length, aa 1-227) (natural protein, UniProt D3ZTE4 1-227, looked up)
chain: MALPTKSSILDLSPGTQCSRSPEESHEAWAQCKDAGRQLPEYKAVVVGASGVGKSALTIQMTHHCFVKDHDPTIQDSYWKEVALDNGGYILNVLDTAGQDSHRALRDQCLAAGDGVLGVFALDDPSSLDQLQQICSTWNPHHKQPLVLVGNKSDLVSSAGDAHTAAAVLAHKLGAPLVKTSAKTRQGVEEAFALLVHEIQRAQEAVAESSKKTRHHKAVCSCGCSVA
notes: Embryonic stem cell-expressed Ras (ERas), rat, D3ZTE4, FL aa 1-227; also called GST-FL of rat ERas
For B4, the binding result in experiment [2] is “binds”.
